Measured values from the Human Domainome abundance scans (Beltran et al. 2025).
± gives the uncertainty stated by the source.

B1: RanBP-type and C3HC4-type zinc finger-containing protein 1, residues 369 to 411; numbered along this chain, Q9BYM8 (parent)
chain: YHCKTPDCKGWCFFEDDVNEFTCPVCFHVNCLLCKAIHEQMNC

Variants of: B1
Test: abundance fitness (aPCA) (normalised: wild type 0, dead -1); higher = more abundant; growth selection in yeast, the domain comes from the species named
Conditions: Homo sapiens

Row | Variant | abundance fitness
1 | D7W | -0.469 ± 0.044
2 | D7R | -0.117 ± 0.036
3 | D7E | 0.034 ± 0.054
4 | W11P | -0.529 ± 0.049
5 | W11Y | -0.038 ± 0.13
6 | W11E | 0.184 ± 0.045
7 | W11A | -0.006 ± 0.04
8 | W11R | 0.036 ± 0.039
9 | W11K | 0.023 ± 0.05
10 | W11D | -0.162 ± 0.064
11 | T5G | -0.308 ± 0.039
12 | T5P | -0.764 ± 0.083
13 | T5I | -0.533 ± 0.19
14 | T5A | -0.131 ± 0.062
15 | T5R | -0.099 ± 0.043
16 | T5Q | -0.004 ± 0.052
17 | T5L | -0.004 ± 0.057
18 | T5C | -0.063 ± 0.081
19 | T5V | -0.083 ± 0.049
20 | E20Q | -0.206 ± 0.054
21 | E20S | -0.222 ± 0.063
22 | E20N | -0.276 ± 0.1
23 | E20G | -0.457 ± 0.048
24 | E20A | -0.311 ± 0.046

Row | Variant | abundance fitness
25 | E20V | -0.391 ± 0.052
26 | E20R | -0.255 ± 0.045
27 | E15C | -0.32 ± 0.09
28 | E15V | -0.238 ± 0.044
29 | E15I | -0.187 ± 0.24
30 | E15P | -0.153 ± 0.06
31 | E15L | -0.423 ± 0.087
32 | F13C | -0.111 ± 0.15
33 | F13K | -0.084 ± 0.11
34 | F13A | 0.124 ± 0.089
35 | V25K | -0.112 ± 0.049
36 | V25T | -0.36 ± 0.064
37 | F21H | -0.665 ± 0.4
38 | F21P | -0.688 ± 0.067
39 | F21C | -0.186 ± 0.064
40 | F21V | 0.06 ± 0.038
41 | F21N | -0.321 ± 0.088
42 | F21W | 0.083 ± 0.05
43 | F21T | 0.03 ± 0.047
44 | L32G | -0.369 ± 0.045
45 | L32D | -0.531 ± 0.12
46 | L32F | -0.407 ± 0.15
47 | L32S | -0.295 ± 0.055
48 | L32P | -0.525 ± 0.063

Row | Variant | abundance fitness
49 | L32M | -0.264 ± 0.087
50 | L32Q | -0.168 ± 0.065
51 | L32C | -0.27 ± 0.12
52 | D16E | 0.026 ± 0.053
53 | D16W | -0.349 ± 0.072
54 | D16C | -0.182 ± 0.057
55 | D16H | -0.045 ± 0.14
56 | D16V | -0.075 ± 0.049
57 | C3R | -0.906 ± 0.051
58 | C3G | -0.826 ± 0.044
59 | C3L | -0.884 ± 0.11
60 | C3K | -0.771 ± 0.071
61 | C3N | -0.666 ± 0.14
62 | C3V | -1.32 ± 0.11
63 | C3Q | -0.886 ± 0.12
64 | C3W | -0.879 ± 0.06
65 | C3M | -0.978 ± 0.12
66 | C43Q | -0.357 ± 0.074
67 | C43N | -0.511 ± 0.15
68 | C43S | -0.312 ± 0.055
69 | C43K | -0.37 ± 0.074
70 | C43I | -0.511 ± 0.11
71 | V18W | -0.458 ± 0.061
72 | V18F | -0.272 ± 0.068

Row | Variant | abundance fitness
73 | V18I | 0.099 ± 0.081
74 | V18E | 0.001 ± 0.043
75 | V18H | -0.277 ± 0.11
76 | V18Q | 0.06 ± 0.065
77 | H38A | -0.689 ± 0.064
78 | H38Y | -0.721 ± 0.12
79 | H38F | -0.59 ± 0.19
80 | H38K | -0.707 ± 0.084
81 | H38G | -0.536 ± 0.049
82 | H38C | -0.774 ± 0.091
83 | H38E | -0.46 ± 0.06
84 | V29G | -0.562 ± 0.055
85 | V29T | -0.108 ± 0.059
86 | V29L | -0.215 ± 0.058
87 | V29I | -0.453 ± 0.25
88 | V29E | -0.34 ± 0.056
89 | L33I | -0.158 ± 0.18
90 | L33H | -0.062 ± 0.055
91 | L33T | -0.026 ± 0.057
92 | L33Y | -0.088 ± 0.22
93 | L33D | -0.148 ± 0.09
94 | L33E | -0.073 ± 0.046
95 | L33W | -0.262 ± 0.049
96 | C26Y | -0.77 ± 0.48

Row | Variant | abundance fitness
97 | C26I | -0.783 ± 0.13
98 | C26V | -1.03 ± 0.093
99 | C26G | -0.757 ± 0.049
100 | C26P | -1 ± 0.13
101 | C26T | -0.921 ± 0.13
102 | C26H | -0.537 ± 0.14
103 | C26N | -0.708 ± 0.14
104 | A36Y | -0.83 ± 0.22
105 | A36V | -0.28 ± 0.044
106 | A36D | -0.053 ± 0.064
107 | A36S | 0.01 ± 0.05
108 | F14G | 0.162 ± 0.27
109 | F14W | 0.075 ± 0.24
110 | H2T | -0.149 ± 0.059
111 | H2C | -0.103 ± 0.069
112 | H2L | -0.233 ± 0.056
113 | H2M | -0.031 ± 0.059
114 | H2E | -0.554 ± 0.07
115 | H2G | -0.568 ± 0.051
116 | H2V | -0.739 ± 0.071
117 | C8D | -0.812 ± 0.15
118 | C8F | -0.554 ± 0.46
119 | C8E | -0.784 ± 0.13
120 | C8A | -0.761 ± 0.065

Row | Variant | abundance fitness
121 | C8G | -0.691 ± 0.045
122 | M41Q | 0.15 ± 0.049
123 | M41I | -0.112 ± 0.069
124 | M41C | -0.004 ± 0.068
125 | M41V | -0.008 ± 0.043
126 | M41D | 0.094 ± 0.066
127 | M41E | 0.135 ± 0.061
128 | M41R | 0.128 ± 0.038
129 | D17M | -0.256 ± 0.11
130 | D17C | -0.215 ± 0.22
131 | D17T | -0.077 ± 0.073
132 | D17W | -0.133 ± 0.065
133 | D17E | 0.06 ± 0.046
134 | C12R | -0.193 ± 0.1
135 | C12L | -0.348 ± 0.33
136 | C12E | -0.854 ± 0.31
137 | C12V | 0.071 ± 0.11
138 | N19W | -0.152 ± 0.042
139 | N19E | 0.042 ± 0.054
140 | N19C | -0.118 ± 0.047
141 | N19V | 0.028 ± 0.052
142 | N19K | 0.09 ± 0.065
143 | N19H | -0.264 ± 0.11
144 | N19D | -0.052 ± 0.066

Row | Variant | abundance fitness
145 | N19P | -0.276 ± 0.071
146 | N19Q | 0.052 ± 0.052
147 | F27Q | 0.059 ± 0.047
148 | F27I | -0.571 ± 0.21
149 | F27V | -0.536 ± 0.048
150 | F27M | -0.159 ± 0.087
151 | F27T | -0.068 ± 0.046
152 | F27S | -0.11 ± 0.052
153 | F27P | -0.62 ± 0.068
154 | F27K | 0.108 ± 0.047
155 | F27E | -0.184 ± 0.048
156 | F27G | 0.115 ± 0.038
157 | F27D | -0.004 ± 0.056
158 | H28T | -0.041 ± 0.05
159 | H28I | -0.224 ± 0.16
160 | H28W | -0.592 ± 0.085
161 | H28V | -0.298 ± 0.066
162 | H28E | 0.005 ± 0.055
163 | H28G | -0.103 ± 0.038
164 | H28A | 0.081 ± 0.043
165 | G10H | -0.359 ± 0.11
166 | G10M | -0.563 ± 0.11
167 | G10E | -0.573 ± 0.057
